Biological target: Carcinoembryonic antigen (CEA) (UniProt P06731 35-685)
Experiment: electrochemical aptasensor (CV, DPV); immobilized aptamer; current falls with CEA; LOD 7.6 ng/mL (not a Kd); 0.05 M PBS pH 7.0, 0.1 M KCl, 5 mM [Fe(CN)6]3-/4-; temperature not stated

Sequence of Carcinoembryonic antigen (CEA) (P06731 35-685): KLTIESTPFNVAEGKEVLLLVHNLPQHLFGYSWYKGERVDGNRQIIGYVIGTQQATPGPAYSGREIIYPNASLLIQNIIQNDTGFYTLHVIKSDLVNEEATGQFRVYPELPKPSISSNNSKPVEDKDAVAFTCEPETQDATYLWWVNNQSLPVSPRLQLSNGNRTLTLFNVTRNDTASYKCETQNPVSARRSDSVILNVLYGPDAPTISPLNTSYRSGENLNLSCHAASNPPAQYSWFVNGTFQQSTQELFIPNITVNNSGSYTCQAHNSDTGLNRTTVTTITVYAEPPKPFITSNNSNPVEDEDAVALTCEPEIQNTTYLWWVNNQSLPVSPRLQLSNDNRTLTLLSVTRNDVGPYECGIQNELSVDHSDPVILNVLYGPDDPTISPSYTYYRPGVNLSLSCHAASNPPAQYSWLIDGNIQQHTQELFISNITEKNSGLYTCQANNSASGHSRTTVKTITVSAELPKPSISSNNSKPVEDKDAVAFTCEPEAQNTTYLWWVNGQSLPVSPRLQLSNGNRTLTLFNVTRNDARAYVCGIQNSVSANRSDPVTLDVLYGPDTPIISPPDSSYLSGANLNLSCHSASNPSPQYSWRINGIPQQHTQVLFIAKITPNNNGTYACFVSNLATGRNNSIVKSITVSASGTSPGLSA

B1: CEA aptamer (ssDNA)
DNA: GTGACGCTCCTAACGCTGACTCAGGTGCAGTTCTCGACTCGGTCTTGATGTGGGTCCTGTCCGTCCGAACCAATC
modifications: 5'-NH2
B1: binds.

Source: publication PMC12921616, “Flower-like Silver Bismuth Sulfide/Carbon Nanosphere Nanocomposite for Sensitive Electrochemical Tumor Marker Sensing”
